The Human Domainome abundance scans (Beltran et al. 2025)
± gives the uncertainty stated by the source.

B1: Mineralocorticoid receptor, residues 600 to 675; numbered along this chain, P08235 (parent)
chain: SKICLVCGDEASGCHYGVVTCGSCKVFFKRAVEGQHNYLCAGRNDCIIDKIRRKNCPACRLQKCLQAGMNLGARKS

Variants of: B1
Experiment: abundance fitness (aPCA) (normalised: wild type 0, dead -1); higher = more abundant; growth selection in yeast, the domain comes from the species named
Conditions: Homo sapiens

Abundance fitness, by site and new letter:
Y38: S -0.049 ± 0.036; N -0.098 ± 0.039; V 0.012 ± 0.046; C -0.153 ± 0.057; P -0.038 ± 0.043; H -0.059 ± 0.048; R -0.088 ± 0.05; Q -0.118 ± 0.077; K -0.026 ± 0.067; T -0.051 ± 0.04; M -0.117 ± 0.1; W -0.047 ± 0.084; I -0.069 ± 0.046; G -0.164 ± 0.064; F -0.027 ± 0.049; A -0.027 ± 0.042; D -0.041 ± 0.05; L -0.054 ± 0.039
V32: W -0.24 ± 0.14; G -0.228 ± 0.19; N -0.08 ± 0.13; P -0.682 ± 0.25; R -0.095 ± 0.082; H -0.158 ± 0.14; Y -0.1 ± 0.1; M 0.114 ± 0.15; E -0.004 ± 0.22; D -0.035 ± 0.2; I 0.019 ± 0.1; K -0.004 ± 0.18; F -0.013 ± 0.077; Q -0.017 ± 0.12; A 0.023 ± 0.1
C40: I -0.759 ± 0.14; E -0.646 ± 0.15; A -0.816 ± 0.11; K -0.73 ± 0.16; S -1.05 ± 0.14; V -1.23 ± 0.22; R -1 ± 0.15; L -0.847 ± 0.13; T -0.68 ± 0.22; G -0.986 ± 0.16; D -0.819 ± 0.15; H -0.341 ± 0.11; F -1.13 ± 0.28; Y -0.737 ± 0.1; W -0.697 ± 0.12; N -0.477 ± 0.13
K25: N 0.084 ± 0.12; S -0.033 ± 0.044; R -0.051 ± 0.04; D -0.087 ± 0.075; V -0.035 ± 0.042; C -0.022 ± 0.063; P -0.058 ± 0.072; H -0.128 ± 0.11; T -0.105 ± 0.057; Q -0.006 ± 0.055; E -0.01 ± 0.051; G -0.051 ± 0.04; I -0.069 ± 0.11; M -0.018 ± 0.061; W -0.083 ± 0.053; F -0.112 ± 0.099; A -0.065 ± 0.042
G34: I -0.103 ± 0.087; C -0.151 ± 0.099; M -0.098 ± 0.092; T -0.064 ± 0.056; Q -0.043 ± 0.099; K -0.104 ± 0.073; W -0.165 ± 0.092; A -0.099 ± 0.06; H -0.078 ± 0.069; S -0.074 ± 0.048; L -0.131 ± 0.06; E -0.013 ± 0.089; F 0.071 ± 0.085; V -0.102 ± 0.049; R 0.032 ± 0.054; N 0.042 ± 0.08
F27: K -0.924 ± 0.18; A -0.434 ± 0.057; I -0.608 ± 0.19; P -0.761 ± 0.14; C -0.801 ± 0.2; M -0.861 ± 0.19; L -0.65 ± 0.078; G -0.827 ± 0.097; D -0.676 ± 0.19; W -0.223 ± 0.055; V -0.591 ± 0.082; T -0.638 ± 0.11; R -1.15 ± 0.17; H -0.427 ± 0.2; E -0.961 ± 0.15; Q -0.847 ± 0.16; Y -0.33 ± 0.093
H36: N 0.001 ± 0.042; P -0.021 ± 0.036; D 0.005 ± 0.041; F -0.023 ± 0.045; T -0.022 ± 0.037; I -0.022 ± 0.043; L -0.087 ± 0.028; Y -0.043 ± 0.039; M -0.046 ± 0.039; G -0.012 ± 0.027; A 0.025 ± 0.03; Q -0.004 ± 0.042; W -0.157 ± 0.039; E -0.004 ± 0.038; S 0.01 ± 0.03; K -0.138 ± 0.054; C -0.042 ± 0.042
C24: Q -1 ± 0.44; W -1.11 ± 0.19; P -0.878 ± 0.2; M -1.04 ± 0.24; K -1.03 ± 0.34; N -0.632 ± 0.17; S -0.867 ± 0.14; R -0.855 ± 0.11; L -0.581 ± 0.092; V -1.01 ± 0.13; D -0.252 ± 0.18; H -0.67 ± 0.28; A -0.983 ± 0.15; E -1.03 ± 0.19
L39: A -0.093 ± 0.039; G -0.045 ± 0.038; S -0.05 ± 0.041; C 0.027 ± 0.049; E -0.047 ± 0.057; Y -0.054 ± 0.043; F -0.027 ± 0.044; M 0.016 ± 0.054; P -0.07 ± 0.057; K -0.009 ± 0.053; V -0.007 ± 0.035; Q -0.001 ± 0.058; R -0.019 ± 0.036; D 0.048 ± 0.065; T -0.077 ± 0.044; I -0.043 ± 0.047
E33: W -0.099 ± 0.08; K 0.044 ± 0.086; Q -0.039 ± 0.068; F -0.137 ± 0.057; D -0.043 ± 0.052; M -0.049 ± 0.076; S 0.008 ± 0.041; V -0.01 ± 0.04; L -0.109 ± 0.041; T -0.051 ± 0.045; C -0.107 ± 0.055; H -0.077 ± 0.051; A -0.28 ± 0.05; G 0.062 ± 0.044; N -0.089 ± 0.057; Y -0.088 ± 0.061; P -0.128 ± 0.048; I -0.124 ± 0.047
A31: G 0.001 ± 0.16; E -0.022 ± 0.23; F -0.104 ± 0.22; L -0.553 ± 0.38; M 0.474 ± 0.49; V 0.194 ± 0.31; S -0.022 ± 0.38; H -0.616 ± 0.35
G22: V -0.093 ± 0.041; L -0.094 ± 0.047; R -0.103 ± 0.037; N -0.236 ± 0.1; E -0.017 ± 0.055; H -0.109 ± 0.12; W -0.088 ± 0.05; P -0.054 ± 0.066; Y -0.222 ± 0.12; S -0.058 ± 0.052; K -0.063 ± 0.059; T -0.11 ± 0.064; I -0.259 ± 0.1; Q -0.16 ± 0.06; M -0.035 ± 0.055
K29: W -0.085 ± 0.066; N -0.109 ± 0.092; M -0.04 ± 0.056; H -0.002 ± 0.11; L -0.072 ± 0.047; G -0.048 ± 0.044; T -0.012 ± 0.057; A 0.016 ± 0.056; D 0.007 ± 0.15; C -0.142 ± 0.11; V -0.095 ± 0.055; F -0.167 ± 0.11; R -0.021 ± 0.046; P -0.076 ± 0.074; E -0.105 ± 0.065; S -0.04 ± 0.057; Q -0.003 ± 0.095
G42: Y -0.051 ± 0.045; R -0.062 ± 0.045; C -0.088 ± 0.046; S 0.023 ± 0.037; T -0.099 ± 0.05; M 0.045 ± 0.1; A 0.005 ± 0.043; L -0.009 ± 0.043; V 0.005 ± 0.041; D 0.051 ± 0.057; I -0.033 ± 0.044; F -0.044 ± 0.045; N -0.025 ± 0.046; W -0.126 ± 0.077; P -0.621 ± 0.083; Q 0.032 ± 0.091
S23: N 0.051 ± 0.12; L -0.104 ± 0.06; K -0.007 ± 0.072; Q -0.013 ± 0.073; D 0.01 ± 0.097; C -0.253 ± 0.11; H -0.143 ± 0.15; Y -0.038 ± 0.09; A -0.125 ± 0.054; T -0.164 ± 0.069; P 0.026 ± 0.067; I -0.42 ± 0.37; G 0.009 ± 0.045; W -0.193 ± 0.076; E 0.003 ± 0.053; F -0.168 ± 0.083; M -0.085 ± 0.067
N37: I -0.058 ± 0.058; Y -0.085 ± 0.048; T -0.029 ± 0.04; W -0.23 ± 0.047; E 0.068 ± 0.042; F -0.264 ± 0.075; S -0.043 ± 0.033; P -0.083 ± 0.041; G -0.061 ± 0.03; Q -0.017 ± 0.046; H -0.051 ± 0.051; C -0.036 ± 0.049; A -0.027 ± 0.034; R 0.01 ± 0.03; D -0.02 ± 0.047; K 0.031 ± 0.051; M -0.076 ± 0.059; V 0.026 ± 0.036
R43: G -0.006 ± 0.028; E 0.005 ± 0.042; K 0.029 ± 0.049; L -0.055 ± 0.029; I -0.025 ± 0.034; F -0.045 ± 0.035; H -0.029 ± 0.04; D -0.024 ± 0.043
Q35: F -0.129 ± 0.055; A -0.058 ± 0.044; L -0.094 ± 0.038; P -0.013 ± 0.047; M -0.121 ± 0.056; E 0.069 ± 0.058; R -0.002 ± 0.038; V -0.079 ± 0.035; H -0.022 ± 0.051; Y -0.112 ± 0.056; W -0.205 ± 0.057; G -0.023 ± 0.042; K 0.011 ± 0.06; N -0.058 ± 0.049; T -0.077 ± 0.043; D 0.056 ± 0.057; I -0.015 ± 0.056; C -0.073 ± 0.05; S -0.028 ± 0.038
V26: R 0.033 ± 0.037; Q 0.001 ± 0.055; E -0.022 ± 0.058; L -0.049 ± 0.041; K 0.008 ± 0.063; Y 0.005 ± 0.095; D 0.024 ± 0.068; A -0.044 ± 0.05; I 0.031 ± 0.13; M -0.058 ± 0.064; N -0.123 ± 0.11; H -0.03 ± 0.12; C -0.1 ± 0.071; W 0.009 ± 0.046
F28: Y -0.095 ± 0.18; C -0.364 ± 0.21; E -0.749 ± 0.13; H -0.445 ± 0.33; G -0.647 ± 0.073; Q -0.582 ± 0.14; S -0.361 ± 0.077; N -0.647 ± 0.37; D -0.782 ± 0.33; M -0.101 ± 0.077; R -0.898 ± 0.1; V -0.322 ± 0.048; A -0.263 ± 0.048; P -1.21 ± 0.49; K -0.856 ± 0.24; W 0.037 ± 0.055
A41: R -0.021 ± 0.044; G 0.028 ± 0.04; V -0.053 ± 0.043; F -0.277 ± 0.07; H -0.033 ± 0.045; S -0.077 ± 0.041; T -0.048 ± 0.045; C -0.017 ± 0.06; D 0.036 ± 0.051; L -0.103 ± 0.041; Q -0.074 ± 0.069; N -0.079 ± 0.052; E 0.129 ± 0.081; W -0.127 ± 0.075; M 0.052 ± 0.056; Y 0.001 ± 0.06; P -0.116 ± 0.048; K -0.149 ± 0.077
R30: Y -0.121 ± 0.32; H 0.043 ± 0.21; P 0.293 ± 0.45; W -0.29 ± 0.5
